This is an account of results in patent US8501695B2, “Tissue kallikrein for the treatment of diseases associated with amyloid protein” (DiaMedica, Inc., priority 2007, dated 2013).

Series [1] has as its system amyloid fibrils (fAβ) from synthetic human amyloid protein Aβ1-42 or Aβ1-40. Nature of the series: In vitro amyloid protein cleavage assay, digestion of fibrils, mass spectroscopy. The note with it: 37° C., 4 h to 5 days, mass spectra FIG. 1. The format is biochemical. The protocol: Synthetic human amyloid protein Aβ1-42 or Aβ1-40 was dissolved in dimethyl sulfoxide (DMSO) (Sigma, St. Louis, Mo.) to a concentration of 5 mM, and is then diluted in MilliQ® water to a final concentration of […] immediately prior to use. To prepare amyloid fibrils (fAβ) 5 mM Aβ1-42 or Aβ1-40 in DMSO was diluted in 10 mM HCl to 100 μM (for Aβ1-42) or […] (for Aβ1-40), vortexed for 30 s, and was incubated at 37° C. for 5 days. KLK1 (Sigma) was used for digestion reactions in the following buffers: ECE, 0.1 M MES, 0.1 M NaCl (pH 6.0); IDE, 50 mM Tris, 1 M NaCl (pH 7.5); NEP, 0.1 M MES (pH 6.5); and MMP-9, 50 mM Tris-HCl (pH 7.5), 10 mM CaCl2, 150 mM NaCl, 0.05% Brij 35. It was incubated at 37° C. for 4 h to 5 days. After digestion, the reaction was analyzed by mass spectroscopy. The samples were added to 50 mM glycine (pH 9.2)/2 mM thioflavin T (ThT) (Sigma) at a final volume of up to 2 ml. […] However, in panel C, there is a clear peak at about 2423 M/Z (mass to charge ration), which is an indication of cleavage.

The test system of series [2] is rat mixed cortical cultures (RMCC). Nature of the series: Aβ1-42 toxicity in rat mixed cortical cultures, LDH measurement. It is filed as cell-based. As to the method: Whether pre-treatment with tissue kallikrein protects rat mixed cortical cultures against exposure to human amyloid beta peptide (Aβ1-42) was investigated. Cell death was analyzed by LDH-release, an indication of necrosis, and cell viability was also analyzed by neuronal cell count. First (Study Arm A), tissue kallikrein was added to the cells only prior to the Aβ1-42 insult (at −24 h and at −30 min). Whereas in the second part (Study Arm B), tissue kallikrein was added to the cells prior to (−30 min) and also at +24 h after the Aβ1-42 insult. At the +24 h time point, cell culture media were not changed (tissue kallikrein or corresponding amount of vehicle was added to the wells), whereas at −24 h and −30 min time point cell culture media were changed.
[…] Cell Culture. Mixed cortical cultures were prepared from E18 Wistar rat embryos (National Animal Center, Kuopio, Finland). The cortices were dissected out, and the tissue cut to small pieces. The cells were separated by 15-min incubation with DNase and papain. The cells were collected by centrifugation (1500 rpm, 5 min). The tissue was triturated with a pipette and the cells were plated on poly-L-lysine-coated 48-well plates, 300,000 cells/cm^2, in MEM (2 g/L glucose) supplemented with 2 mM glutamine, 0.1 μg/ml gentamicin, 10% heat-inactivated fetal bovine serum (FBS-HI) and 10% heat-inactivated horse serum (HS-HI). After 3-4 h, the media were changed to MEM (2 g/L glucose) supplemented with 2 mM glutamine, 0.1 μg/ml gentamicin, 5% HS-HI. After three days in vitro, media containing MEM (2 g/L glucose) supplemented with glutamine, gentamicin, and 5% of both sera were changed to the cells. On day 6 in vitro, the unwanted cell division was inhibited by adding cytosine arabinoside (10 μM final concentration) for 24 h. The cultures were refed with MEM (2 g/L glucose) supplemented with glutamine, gentamicin, and 5% HS-HI before experiments.
Aβ1-42 Exposure. Tissue kallikrein (SEQ ID NO:1) was dissolved and further diluted in MEM supplemented with glucose, glutamine, gentamicin, and 5% HS-HI. As a control for total neuronal death, 300 μM N-methyl-D-aspartic acid (NMDA) for 48 h was used, and 10 μM Aβ1-42 for 48 h was used to induce approximately 30-50% cell death. Wells treated with media only served as 0-control. Tissue kallikrein or vehicle was pipetted to the cells −24 h and −30 min before adding 10 μM Aβ1-42 (final concentration). Tissue kallikrein or vehicle was again pipetted to the cells at +24 h after exposure.
LDH Measurement. After 48 h, the culture media of all wells were collected, and possible cell debris was removed by centrifugation (13,000 rpm for 3 min). A 100 μl aliquot was pipetted into a microtiter plate as duplicates, and equal amount of LDH reagent was pipetted to the wells. The absorbance at 340 nm was measured immediately using a 3 min kinetic measurement protocol in Multiskan ELISA reader (Labsystems, Finland). The change in absorbance/min was determined, which was directly proportional to the released LDH. The remaining supernatant (50 μl) was snap-frozen in dry ice for storage.
Data Analysis. The number of wells per compound concentration used was 6 (n=6). Five concentrations of Tissue kallikrein were studied (0.001, 0.01, 0.1, 1, 10 μg/ml) in both study arms. Statistical analysis was performed using StatsDirect statistical software. The values were analyzed by one-way ANOVA followed by Dunnet's test (comparison to the vehicle-treated group). Results are presented as mean±standard deviation (SD) and differences are considered to be statistically significant at the P<0.05 level.

The target of series [3] is T1, Amyloid beta1-42 (hAPβ42 peptide) (Homo sapiens, UniProt P05067).
T1 construct: Amyloid beta1-42 standard (from β-Amyloid1-42 ELISA, Human kit, Sigma BE0200); purchased Sigma BE0200
Nature of the series: Direct cleavage of amyloid beta, β-Amyloid1-42 ELISA. The format is biochemical. As to the method: Amyloid beta1-42 standard (from β-Amyloid1-42 ELISA, Human kit, Sigma BE0200) was reconstituted into 1.0 μg/mL as per kit instructions. A stock solution of tissue kallikrein (SEQ ID: 1) and approximately 0.5 molar equivalents of Soybean Trypsin Inhibitor (Sigma, T6522) was prepared in PBS and serially diluted in triplicate with a fixed concentration of hAPβ42 peptide at 500 pg/mL. Solutions were incubated for 3 and 18 hours respectively after which time additional protease inhibitors were added (1/100 dilution of protease inhibitor cocktail solution, Sigma P8340). As per kit instructions, 50 μL of the above samples were added and the ELISA plate incubated overnight at 4° C. The remaining steps of the ELISA plate development were followed as per kit instructions and then read using a multiwell ELISA plate reader at 450 nm. Percent cleavage was determined by: 100−[(Ave KLK1−Ave Blank)/(Ave Control−Ave Blank)×100]=% Cleavage Results
(In an ELISA, binding on a coated surface is turned into a signal by an enzyme label.)

T1 sequence (P05067 672-713 limits assumed): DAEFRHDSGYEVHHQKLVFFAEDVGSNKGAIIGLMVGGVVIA
Sequence of amyloid fibrils (fAβ) from synthetic human amyloid protein Aβ1-42 or Aβ1-40 (P05067 672-711 limits assumed): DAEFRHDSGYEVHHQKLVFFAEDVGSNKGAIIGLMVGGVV

B1: tissue kallikrein: serine protease that cleaves kininogen into kallidin; polypeptide SEQ ID NO:1 (Sus scrofa kallikrein 1), KLK1 from Sigma (protein, listed as Sus scrofa)
chain: MWSLVMRLALSLAGTGAAPPIQSRIIGGRECEKDSHPWQVAIYHYSSFQCGGVLVDPKWVLTAAHCKNDNYQVWLGRHNLFENEVTAQFFGVTADFPHPGFNLSLLKNHTKADGKDYSHDLMLLRLQSPAKITDAVKVLELPTQEPELGSTCQASGWGSIEPGPDDFEFPDEIQCVELTLLQNTFCADAHPDKVTESMLCAGYLPGGKDTCMGDSGGPLICNGMWQGITSWGHTPCGSANKPSIYTKLIFYLDWINDTITENP
modifications: 125I label in one form
For the molecule B1, the “cleavage of amyloid fibrils” value in series [1] is reported as “cleaves amyloid fibrils”. For the same molecule, the “LDH release following Aβ1-42 insult” value in series [2] (10 μg/ml, Study Arms A, B and C (all three treatment arms), FIG. 7) is “statistically significant reduction of LDH release”; in series [2] (Study Arm A (-24 h and -30 min), 10 μg/ml, 10 μM Aβ1-42) it was “significantly reduced LDH release”; in series [2] (Study Arm A (-24 h and -30 min), 0.001, 0.01, 0.1 and 1.0 μg/ml, 10 μM Aβ1-42), “did not alter LDH release”; in series [2] (Study Arm B (-30 min and +24 h), 1.0 μg/ml), “reduced LDH release”; in series [2] (Study Arm B (-30 min and +24 h), 10 μg/ml), “statistically significant reduction of LDH release”; in series [2] (Study Arm B (-30 min and +24 h), 0.001, 0.01 and 0.1 μg/ml, 10 μM Aβ1-42), “did not alter LDH release”. In addition, the “Percent Cleavage of Amyloid Beta” value in series [3] (KLK1 1 pg/mL, 3 hrs) turned out to be 0%; in series [3] (KLK1 1 pg/mL, 18 hrs), 0%; in series [3] (KLK1 10 pg/mL, 3 hrs), 0%; in series [3] (KLK1 10 pg/mL, 18 hrs) it was 15%; in series [3] (KLK1 100 pg/mL, 3 hrs), 0%; in series [3] (KLK1 100 pg/mL, 18 hrs), 19.5%. Moreover, the “Percent Cleavage of Amyloid Beta” value in series [3] (KLK1 1 ng/mL, 3 hrs) amounted to 19.6%; in series [3] (KLK1 1 ng/mL, 18 hrs), 50%; in series [3] (KLK1 10 ng/mL, 3 hrs) it was 36.6%; in series [3] (KLK1 10 ng/mL, 18 hrs), 88.4%; in series [3] (KLK1 100 ng/mL, 3 hrs), 71.7%; in series [3] (KLK1 100 ng/mL, 18 hrs), 99.8%. For the same molecule, the “Percent Cleavage of Amyloid Beta” value worked out at 92.1% in series [3] (KLK1 1 μg/mL, 3 hrs) and 100% in series [3] (KLK1 1 μg/mL, 18 hrs).
